Data taken from patent US20030049796A1.

Biological target: Recombinant active caspase-9 (catalytic domain) (mammalian) (UniProt P55211)
Experiment: cell-based or functional assay

UniProt P55211, sequence (P55211 139-416 limits assumed): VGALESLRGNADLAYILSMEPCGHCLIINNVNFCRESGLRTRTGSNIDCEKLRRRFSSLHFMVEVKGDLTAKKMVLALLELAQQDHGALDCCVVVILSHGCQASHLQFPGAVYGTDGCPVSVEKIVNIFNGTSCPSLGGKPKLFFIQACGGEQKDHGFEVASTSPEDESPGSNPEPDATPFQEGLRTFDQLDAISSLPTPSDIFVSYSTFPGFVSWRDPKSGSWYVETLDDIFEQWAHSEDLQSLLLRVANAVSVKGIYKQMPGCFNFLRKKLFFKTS

## GST-BmIAP (recombinant purified Bombyx mori inhibitor of apoptosis protein, glutathione S-transferase fusion)
  caspase-9 activity: AFC release from Ac-LEHD-AFC (100 uM); 0.2 uM caspase-9, 0.2-1.6 uM BmIAP, 37 C (fold molar excess): 8
